Measurements as given in the RNAGym collection of RNA variant scans (doi:10.7554/elife.80360).

B1: Hairpin Ribozyme (parent)
chain: GUCCUCUUUCACGUGCGCGUGAAAGAGAGAAGUGAACCAGAGAAACACACGUUGUGGUAUAUUACCUGGUA

Variants of: B1
Test: self-cleavage, relative activity (ratio to wild type); higher = more cleavage; co-transcriptional

First: GUCCUCUUUCACGUGCGCGUGUAAGAGAGAUGUGAACCAGAGAAACACACGUUGUGGUAUAUUACCUGGUA [A22U A31U]
Second: GUCCUCUUUCACGUGCGCGUGUAAGAGAGAAGUGACCCAGAGAAACACACGUUGUGGUAUAUUACCUGGUA [A22U A36C]
The self-cleavage of the first is lower: 0.12 for the first, 0.589 for the second.

Going from GUCCUCUUUCACGUGCGCGUGUAAGAGAGAAGUGAGCCAGAGAAACACACGUUGUGGUAUAUUACCUGGUA [A22U A36G] to GUCCUCUUUCACGUGCGCGUGUAAGAGAGAAGUGAACCUGAGAAACACACGUUGUGGUAUAUUACCUGGUA [A22U A39U], the self-cleavage falls from 0.849 to 0.359.

First: GUCCUCUUUCACGUGCGCGUGUAAGAGAGAAGUGAACCAGGGAAACACACGUUGUGGUAUAUUACCUGGUA [A22U A41G]
Second: GUCCUCUUUCACGUGCGCGUGUAAGAGAGAAGUGAACCAGUGAAACACACGUUGUGGUAUAUUACCUGGUA [A22U A41U]
The self-cleavage of the first is lower: 0.776 for the first, 1.14 for the second.

Compared with GUCCUCUUUCACGUGCGCGUGUAAGAGAGAAGUGAACCAGAGGAACACACGUUGUGGUAUAUUACCUGGUA [A22U A43G], GUCCUCUUUCACGUGCGCGUGUAAGAGAGAAGUGAACCAGAGACACACACGUUGUGGUAUAUUACCUGGUA [A22U A44C] is higher in self-cleavage: 0.237 for the first, 0.239 for the second.

First: GUCCUCUUUCACGUGCGCGUGUAAGAGAGAAGUGAACCAGAGAGACACACGUUGUGGUAUAUUACCUGGUA [A22U A44G]
Second: GUCCUCUUUCACGUGCGCGUGUAAGAGAGAAGUGAACCAGAGAAUCACACGUUGUGGUAUAUUACCUGGUA [A22U A45U]
The self-cleavage of the first is lower: 0.113 for the first, 0.143 for the second.

First: GUCCUCUUUCACGUGCGCGUGUAAGAGAGAAGUGAACCAGAGAAACCCACGUUGUGGUAUAUUACCUGGUA [A22U A47C]
Second: GUCCUCUUUCACGUGCGCGUGUAAGAGAGAAGUGAACCAGAGAAACUCACGUUGUGGUAUAUUACCUGGUA [A22U A47U]
The self-cleavage of the first is higher: 0.345 for the first, 0.202 for the second.

First: GUCCUCUUUCACGUGCGCGUGUAAGAGAGAAGUGAACCAGAGAAACACUCGUUGUGGUAUAUUACCUGGUA [A22U A49U]
Second: GUCCUCUUUCACGUGCGCGUGUAAGAGAGAAGUGAACCAGAGAAACACACGUUGUGGUGUAUUACCUGGUA [A22U A59G]
The self-cleavage of the first is higher: 0.293 for the first, 0.117 for the second.

First: GUCCUCUUUCACGUGCGCGUGUAAGAGAGAAGUGAACCAGAGAAACACACGUUGUGGUAUCUUACCUGGUA [A22U A61C]
Second: GUCCUCUUUCACGUGCGCGUGUAAGAGAGAAGUGAACCAGAGAAACACACGUUGUGGUAUGUUACCUGGUA [A22U A61G]
The self-cleavage of the first is higher: 0.171 for the first, 0.155 for the second.

Going from GUCCUCUUUCACGUGCGCGUGUAAGAGAGAAGUGAACCAGAGAAACACACGUUGUGGUAUUUUACCUGGUA [A22U A61U] to GUCCUCUUUCACGUGCGCGUGUAAGAGAGAAGUGAACCAGAGAAACACACGUUGUGGUAUAUUACCUGGUC [A22U A71C], the self-cleavage rises from 0.198 to 1.37.

Going from GUCCUCUUUCACGUGCGCGUGUAAGAGAGAAGUGAAACAGAGAAACACACGUUGUGGUAUAUUACCUGGUA [A22U C37A] to GUCCUCUUUCACGUGCGCGUGUAAGAGAGAAGUGAAUCAGAGAAACACACGUUGUGGUAUAUUACCUGGUA [A22U C37U], the self-cleavage rises from 0.352 to 0.443.

Going from GUCCUCUUUCACGUGCGCGUGUAAGAGAGAAGUGAACAAGAGAAACACACGUUGUGGUAUAUUACCUGGUA [A22U C38A] to GUCCUCUUUCACGUGCGCGUGUAAGAGAGAAGUGAACUAGAGAAACACACGUUGUGGUAUAUUACCUGGUA [A22U C38U], the self-cleavage rises from 0.155 to 0.41.

First: GUCCUCUUUCACGUGCGCGUGUAAGAGAGAAGUGAACCAGAGAAAGACACGUUGUGGUAUAUUACCUGGUA [A22U C46G]
Second: GUCCUCUUUCACGUGCGCGUGUAAGAGAGAAGUGAACCAGAGAAACAAACGUUGUGGUAUAUUACCUGGUA [A22U C48A]
The self-cleavage of the first is higher: 0.166 for the first, 0.16 for the second.

First: GUCCUCUUUCACGUGCGCGUGUAAGAGAGAAGUGAACCAGAGAAACACAAGUUGUGGUAUAUUACCUGGUA [A22U C50A]
Second: GUCCUCUUUCACGUGCGCGUGUAAGAGAGAAGUGAACCAGAGAAACACAUGUUGUGGUAUAUUACCUGGUA [A22U C50U]
The self-cleavage of the first is lower: 0.211 for the first, 0.342 for the second.

Going from GUCCUCUUUCACGUGCGCGUGUAAUAGAGAAGUGAACCAGAGAAACACACGUUGUGGUAUAUUACCUGGUA [A22U G25U] to GUCCUCUUUCACGUGCGCGUGUAAGAGAAAAGUGAACCAGAGAAACACACGUUGUGGUAUAUUACCUGGUA [A22U G29A], the self-cleavage falls from 0.253 to 0.13.

First: GUCCUCUUUCACGUGCGCGUGUAAGAGAGAAGUAAACCAGAGAAACACACGUUGUGGUAUAUUACCUGGUA [A22U G34A]
Second: GUCCUCUUUCACGUGCGCGUGUAAGAGAGAAGUGAACCAAAGAAACACACGUUGUGGUAUAUUACCUGGUA [A22U G40A]
The self-cleavage of the first is higher: 1.24 for the first, 0.218 for the second.

Compared with GUCCUCUUUCACGUGCGCGUGUAAGAGAGAAGUGAACCAUAGAAACACACGUUGUGGUAUAUUACCUGGUA [A22U G40U], GUCCUCUUUCACGUGCGCGUGUAAGAGAGAAGUGAACCAGAAAAACACACGUUGUGGUAUAUUACCUGGUA [A22U G42A] is higher in self-cleavage: 0.115 for the first, 0.264 for the second.

First: GUCCUCUUUCACGUGCGCGUGUAAGAGAGAAGUGAACCAGAGAAACACACGUUGUGGUAUAUUACCUAGUA [A22U G68A]
Second: GUCCUCUUUCACGUGCGCGUGUAAGAGAGAAGUGAACCAGAGAAACACACGUUGUGGUAUAUUACCUUGUA [A22U G68U]
The self-cleavage of the first is higher: 0.389 for the first, 0.188 for the second.

Going from GUCCUCUUUCACGUGCGCGUGUAAGAGAGAAGUGAACCAGAGAAACACACGUUGUGGUAUAUUACCUGUUA [A22U G69U] to GUCCUCUUUCACGUGCGCGUGUAAGAGAGAAGAGAACCAGAGAAACACACGUUGUGGUAUAUUACCUGGUA [A22U U33A], the self-cleavage falls from 0.259 to 0.172.

First: GUCCUCUUUCACGUGCGCGUGUAAGAGAGAAGUGAACCAGAGAAACACACGUUGGGGUAUAUUACCUGGUA [A22U U55G]
Second: GUCCUCUUUCACGUGCGCGUGUAAGAGAGAAGUGAACCAGAGAAACACACGUUGUGGUACAUUACCUGGUA [A22U U60C]
The self-cleavage of the first is lower: 0.298 for the first, 0.719 for the second.
